We go through two molecules from publication PMC8217511 (2021).

To fix the notation:
B1: monobody MB_(CRS6)-15, purified (designed binder)
chain: GSVSSVPTKLEVVAATPTSLLISWDAPAVTVYLYVITYGETGGNSPVQEFEVPGSKSTATISGLKPGVDYTITVYASSKHSSRYASPISINYRT
B2: CrSAS-6_6HR, N-terminal domain and six heptad repeats of the coiled-coil of Chlamydomonas reinhardtii SAS-6 (domain or fragment)
chain: MPLLLDDGDPKAQTGFDLSTATTLFWRPVPVHVKQQDREDVLEELTFRILTGVAKQNHNLRILRIHISSDSDLFFLHTLEVSEEDFQSLKNDQGILVDFASFPGKIISLLEKCILAQPGDSPRFQAVLTIRGGESVFKIVEINDFKQLPHITLAFRPGNDSVVKQFLAFRLSEVKGTCHDLSDDLSRTRDDRDSMVAQLAQCRQQLAQLREQYDKHLLEVQAQAKT

Like-named read-outs stand apart in the source and are kept apart here.

Targets include MBCRS6-4; MBCRS6-3; MBCRS6-6; MBCRS6-2; MBCRS6-12.
What all share (test): ITC
The target in experiment [1] is B2.
Experiment [2] deals with MBCRS6-5.
For experiment [3], the target named is MBCRS6-5. The source holds these as a separate data set.

Regarding B1, the Kd in experiment [1] is 468 nM. In other words, the sub-micromolar range.

For the molecule B2, the dissociation constant Kd came to 31 nM with MBCRS6-5 [2]; 316 nM with MBCRS6-4; 369 nM in the experiment with MBCRS6-3; 570 nM with MBCRS6-6; 88700 nM with MBCRS6-2; 31.1 nM with MBCRS6-5 [3]. Besides, the Kd with MBCRS6-12 stood at 193 nM.
